Experimental data: article PMC7794802, “The Interactome of Cancer-Related Lysyl Oxidase and Lysyl Oxidase-Like Proteins” (Cancers, 2020)

Experiments:
[1] = target: human α5β1 integrin, full-length (Millipore CC1027) (human) (UniProt P08648); test: BLI; inhibition: α5β1 integrin at 35.5 µg/mL preincubated one hour at room temperature with or without RGD peptide at 50 µg/mL, then LOXL2-coated AR2G sensor dipped in it; same buffer as the kinetics
[2] = target: T1, SPARC (UniProt P09486 18-303); test: SPR; BIAcore T100; ligands covalently immobilised by amine coupling on CM5 or CM3 (collagen XVII) sensor chips; LOXL2, SRCR 1-2 and SRCR 1-4 injected in 10 mM Hepes pH 7.4, 150 mM NaCl, 0.05% P20
T1 construct: SPARC; also called immobilized SPARC
T1 sequence (looked up): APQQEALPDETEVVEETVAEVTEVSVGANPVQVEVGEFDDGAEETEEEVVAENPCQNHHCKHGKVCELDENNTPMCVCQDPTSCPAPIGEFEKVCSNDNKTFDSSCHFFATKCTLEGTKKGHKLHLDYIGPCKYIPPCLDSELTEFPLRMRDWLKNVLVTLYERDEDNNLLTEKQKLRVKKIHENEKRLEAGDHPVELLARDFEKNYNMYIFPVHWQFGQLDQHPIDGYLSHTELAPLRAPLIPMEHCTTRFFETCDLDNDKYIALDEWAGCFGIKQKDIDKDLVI

[3] = target: T2, human α5β1 integrin, full-length (Millipore CC1027) (human, UniProt P08648 42-1049; P05556 21-798); test: SPR; SPR imaging, BIAcore Flexchip; α5β1 integrin (29.3 µg/mL) as analyte recirculated over ECM arrays including spotted LOXL2; 10 mM Hepes pH 7.4, 150 mM NaCl, 50 mM β-octyl-D-glucopyranoside, 2 mM MgCl2, 2 mM MnCl2; details: both partners purified
T2 construct: integrin alpha-5 subunit of human α5β1 integrin; integrin beta-1 subunit of human α5β1 integrin; Used in buffer with 50 mM β-octyl-D-glucopyranoside, MgCl2 and MnCl2; The source is told for the BLI assays only; also called full-length α5β1 integrin; source: bought: Millipore, Merck, CC1027
T2 sequence (P08648 42-1049, chain 1 of 2): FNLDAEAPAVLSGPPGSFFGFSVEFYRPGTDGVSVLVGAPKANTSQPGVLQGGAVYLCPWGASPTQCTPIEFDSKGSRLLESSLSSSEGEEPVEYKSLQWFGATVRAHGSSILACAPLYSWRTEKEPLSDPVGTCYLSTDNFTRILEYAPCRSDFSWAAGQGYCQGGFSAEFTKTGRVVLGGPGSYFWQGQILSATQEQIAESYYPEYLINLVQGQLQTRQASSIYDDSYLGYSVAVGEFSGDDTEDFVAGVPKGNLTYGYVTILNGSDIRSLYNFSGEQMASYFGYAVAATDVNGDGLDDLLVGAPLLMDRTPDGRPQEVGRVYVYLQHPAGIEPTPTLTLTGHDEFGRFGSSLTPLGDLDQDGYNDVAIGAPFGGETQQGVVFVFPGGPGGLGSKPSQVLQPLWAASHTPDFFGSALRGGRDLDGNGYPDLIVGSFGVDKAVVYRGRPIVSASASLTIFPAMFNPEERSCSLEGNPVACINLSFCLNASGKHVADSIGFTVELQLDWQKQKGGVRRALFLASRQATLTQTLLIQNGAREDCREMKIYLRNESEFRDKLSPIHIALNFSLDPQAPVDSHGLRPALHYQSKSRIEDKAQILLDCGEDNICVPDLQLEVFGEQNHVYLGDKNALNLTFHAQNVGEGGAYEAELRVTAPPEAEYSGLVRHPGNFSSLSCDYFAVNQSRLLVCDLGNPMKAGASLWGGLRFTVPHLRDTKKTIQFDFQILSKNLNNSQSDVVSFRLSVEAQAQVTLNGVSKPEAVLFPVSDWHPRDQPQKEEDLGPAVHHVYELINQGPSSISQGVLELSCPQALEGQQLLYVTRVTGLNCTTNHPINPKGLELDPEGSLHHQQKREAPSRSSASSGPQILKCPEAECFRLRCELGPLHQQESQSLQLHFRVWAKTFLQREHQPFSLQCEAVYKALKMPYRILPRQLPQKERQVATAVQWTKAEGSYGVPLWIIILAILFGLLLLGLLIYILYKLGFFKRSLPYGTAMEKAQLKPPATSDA
T2 sequence (P05556 21-798, chain 2 of 2): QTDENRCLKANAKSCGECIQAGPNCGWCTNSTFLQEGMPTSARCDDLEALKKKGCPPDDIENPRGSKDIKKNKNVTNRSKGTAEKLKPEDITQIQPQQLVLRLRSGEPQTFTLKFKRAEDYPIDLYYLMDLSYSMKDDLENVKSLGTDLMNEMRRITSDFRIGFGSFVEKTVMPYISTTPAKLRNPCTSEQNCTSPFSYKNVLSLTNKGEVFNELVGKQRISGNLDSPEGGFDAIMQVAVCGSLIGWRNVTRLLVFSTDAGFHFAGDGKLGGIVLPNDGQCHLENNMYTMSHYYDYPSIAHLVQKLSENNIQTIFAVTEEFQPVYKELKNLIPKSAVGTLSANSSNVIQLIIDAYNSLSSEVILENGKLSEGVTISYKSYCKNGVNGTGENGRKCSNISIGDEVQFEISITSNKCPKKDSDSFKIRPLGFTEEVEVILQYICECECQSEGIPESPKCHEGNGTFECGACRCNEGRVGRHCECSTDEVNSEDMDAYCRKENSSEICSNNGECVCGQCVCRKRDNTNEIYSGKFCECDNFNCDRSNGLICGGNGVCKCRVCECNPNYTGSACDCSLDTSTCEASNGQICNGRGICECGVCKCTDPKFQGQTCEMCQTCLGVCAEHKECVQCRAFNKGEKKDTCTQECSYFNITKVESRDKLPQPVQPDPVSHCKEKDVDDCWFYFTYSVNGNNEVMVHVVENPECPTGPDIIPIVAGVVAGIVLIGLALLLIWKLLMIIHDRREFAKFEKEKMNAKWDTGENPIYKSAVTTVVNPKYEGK

[4] = target: T2, human α5β1 integrin, full-length …; test: BLI; inhibition: α5β1 integrin at 35.5 µg/mL preincubated one hour at room temperature with or without RGD peptide at 50 µg/mL, then LOXL2-coated AR2G sensor dipped in it; same buffer as the kinetics; details: both partners purified

Chain of human α5β1 integrin, full-length (Millipore CC1027) (human) (P08648 42-1049, chain 1 of 2): as the sequence (P08648 42-1049, chain 1 of 2) above
Chain of human α5β1 integrin, full-length (Millipore CC1027) (human) (P05556 21-798, chain 2 of 2, further chain): as the sequence (P05556 21-798, chain 2 of 2) above

RGD peptide (Sigma-Aldrich, A8052)
percent decrease of the binding of α5β1 integrin to LOXL2 [1]: 24.9%

B1: lysyl oxidase-like 2 (LOXL2), full-length recombinant protein (enzyme, UniProt Q9Y4K0 26-774, looked up)
chain: QYDSWPHYPEYFQQPAPEYHQPQAPANVAKIQLRLAGQKRKHSEGRVEVYYDGQWGTVCDDDFSIHAAHVVCRELGYVEAKSWTASSSYGKGEGPIWLDNLHCTGNEATLAACTSNGWGVTDCKHTEDVGVVCSDKRIPGFKFDNSLINQIENLNIQVEDIRIRAILSTYRKRTPVMEGYVEVKEGKTWKQICDKHWTAKNSRVVCGMFGFPGERTYNTKVYKMFASRRKQRYWPFSMDCTGTEAHISSCKLGPQVSLDPMKNVTCENGLPAVVSCVPGQVFSPDGPSRFRKAYKPEQPLVRLRGGAYIGEGRVEVLKNGEWGTVCDDKWDLVSASVVCRELGFGSAKEAVTGSRLGQGIGPIHLNEIQCTGNEKSIIDCKFNAESQGCNHEEDAGVRCNTPAMGLQKKLRLNGGRNPYEGRVEVLVERNGSLVWGMVCGQNWGIVEAMVVCRQLGLGFASNAFQETWYWHGDVNSNKVVMSGVKCSGTELSLAHCRHDGEDVACPQGGVQYGAGVACSETAPDLVLNAEMVQQTTYLEDRPMFMLQCAMEENCLSASAAQTDPTTGYRRLLRFSSQIHNNGQSDFRPKNGRHAWIWHDCHRHYHSMEVFTHYDLLNLNGTKVAEGHKASFCLEDTECEGDIQKNYECANFGDQGITMGCWDMYRHDIDCQWVDITDVPPGDYLFQVVINPNFEVAESDYSNNIMKCRSRYDGHRIWMYNCHIGGSFSEETEKKFEHFSGLLNNQLSPQ
notes: lysyl oxidase-like 2 (LOXL2), full-length recombinant protein made in the laboratory; As a secreted recombinant protein it probably lacks its signal peptide (surmise); also called full-length LOXL2; soluble LOXL2; source: expressed as recombinant protein as previously described [62]
KD1 (site 1, heterogeneous ligand model) [2]: 37.8 nM | KD2 (site 2, heterogeneous ligand model) [2]: 41.5 nM | ka1 (site 1, heterogeneous ligand model) [2]: 186000 M⁻¹ s⁻¹ | ka2 (site 2, heterogeneous ligand model) [2]: 167000 M⁻¹ s⁻¹ | kd1 (site 1, heterogeneous ligand model) [2]: 0.00622 s⁻¹ | kd2 (site 2, heterogeneous ligand model) [2]: 0.00769 s⁻¹ | binding result [3]: binds

B2: LOXL2 N-terminal scavenger receptor cysteine-rich domains SRCR 1-2 (residues 58-302) (domain or fragment, UniProt Q9Y4K0 58-302, looked up)
chain: LRLAGQKRKHSEGRVEVYYDGQWGTVCDDDFSIHAAHVVCRELGYVEAKSWTASSSYGKGEGPIWLDNLHCTGNEATLAACTSNGWGVTDCKHTEDVGVVCSDKRIPGFKFDNSLINQIENLNIQVEDIRIRAILSTYRKRTPVMEGYVEVKEGKTWKQICDKHWTAKNSRVVCGMFGFPGERTYNTKVYKMFASRRKQRYWPFSMDCTGTEAHISSCKLGPQVSLDPMKNVTCENGLPAVVSCV
notes: LOXL2, SRCR domains 1-2, residues 58-302; also called SRCR 1-2 domain; source: expressed as recombinant protein as previously described [62]
Kd ([2]; both partners purified): 21.4 nM

B3: Recombinant human LOXL2 (R&D Systems, 2639-AO) (enzyme, UniProt Q9Y4K0 26-774, looked up)
chain: QYDSWPHYPEYFQQPAPEYHQPQAPANVAKIQLRLAGQKRKHSEGRVEVYYDGQWGTVCDDDFSIHAAHVVCRELGYVEAKSWTASSSYGKGEGPIWLDNLHCTGNEATLAACTSNGWGVTDCKHTEDVGVVCSDKRIPGFKFDNSLINQIENLNIQVEDIRIRAILSTYRKRTPVMEGYVEVKEGKTWKQICDKHWTAKNSRVVCGMFGFPGERTYNTKVYKMFASRRKQRYWPFSMDCTGTEAHISSCKLGPQVSLDPMKNVTCENGLPAVVSCVPGQVFSPDGPSRFRKAYKPEQPLVRLRGGAYIGEGRVEVLKNGEWGTVCDDKWDLVSASVVCRELGFGSAKEAVTGSRLGQGIGPIHLNEIQCTGNEKSIIDCKFNAESQGCNHEEDAGVRCNTPAMGLQKKLRLNGGRNPYEGRVEVLVERNGSLVWGMVCGQNWGIVEAMVVCRQLGLGFASNAFQETWYWHGDVNSNKVVMSGVKCSGTELSLAHCRHDGEDVACPQGGVQYGAGVACSETAPDLVLNAEMVQQTTYLEDRPMFMLQCAMEENCLSASAAQTDPTTGYRRLLRFSSQIHNNGQSDFRPKNGRHAWIWHDCHRHYHSMEVFTHYDLLNLNGTKVAEGHKASFCLEDTECEGDIQKNYECANFGDQGITMGCWDMYRHDIDCQWVDITDVPPGDYLFQVVINPNFEVAESDYSNNIMKCRSRYDGHRIWMYNCHIGGSFSEETEKKFEHFSGLLNNQLSPQ
notes: recombinant human lysyl oxidase-like 2 (LOXL2), commercial protein; also called immobilized LOXL2; source: bought: R&D Systems, BioTechne, 2639-AO
binding result [4]: binds
